Target: SARS-CoV-2 spike RBD wild type (SARS-CoV-2 (Wuhan strain)) (UniProt P0DTC2)
Assay: filter binding

Sequence	Kd (11 Nap-dU (5-[N-(1-naphthylmethyl)carboxamide]-2'-deoxyuridine) in place of dT) [nM]	Kd (11 Nap-dU in place of dT) [nM]
TATCGAGCGTCCTGCCTTTGCGGAGGUGAACCUUACGUUCAACUGGAUCGUGUGUAGGUACACCGACAGCCACCCAGAAA [AM032-0]	0.78	
CTGUCGGUAAGGGAGCUAGUGUAUGCCCCUGAGUUGGGGAUAUCACCGACAG [AM047-0]		0.02
